± gives the uncertainty stated by the source.
Experiment: self-splicing fitness, log relative to wild type (ln ratio); higher = more splicing; Tetrahymena group I intron in knt gene, E. coli kanamycin selection, DiMSum; sequences stand for … in CUCUCU…GGAGGGAAAAGUUAUCAGGCAUGCACCUGGUAGCUAGUCUUUAAACCAAUAGAUUGCAUCGGUUUAAAAGGCAAGACCGUCAAAUUGCGGGAAAGGGGUCAACAGCCGUUCAGUACCAAGUCUCAGGGGAAACUUUGAGAUGGCCUUGCAAAGGGUAUGGUAAUAAGCUGACGGACAUGGUCCUAACCACGCAGCCAAGUCCUAAGUCAACAGAUCUUCUGUUGAUAUGGAUGCAGUUCACAGACUAAAUGUCGGUCGGGGAAGAUGUAUUCUUCUCAUAAGAUAUAGUCGGACCUCUCCUUAAUGGGAGCUAGCGGAUGAAGUGAUGCAACACUGGAGCCGCUGGGAACUAAUUUGUAUGCGAAAGUAUAUUGAUUAGUUUUGGAGUACUCGUGGUCG
Procedure, shortened: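 Pooled colonies went to amplicon sequencing on an Illumina HiSeq 2500 after six replicate transformations. The plates were LB agar with 100 μg/mL carbenicillin, 50 μM IPTG and 0.2% rhamnose, with or without 25 μg/mL kanamycin, incubated overnight at 37°C or 30°C. The E. coli BL21(DE3) library had all eight P1ex-region intron nucleotides randomised, the intron placed in the knt kanamycin-resistance gene on pET-22b(+). DiMSum fitness is the error-weighted combination of replicate fold changes, kanamycin against none, normalised to wild type.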

| Sequence | self-splicing fitness (ln) (30 °C) | self-splicing fitness (ln) (37 °C) |
| --- | --- | --- |
| AAGAAGCAAUAUUACGCGGC | -3.5 ± 0.49 | -2.17 ± 0.44 |
| AAGAAGCAAUAUUACGCGUG | -0.716 ± 0.073 | -0.537 ± 0.093 |
| AAGAAGCAAUAUUACGGAUA | -1.67 ± 0.1 | -1.38 ± 0.12 |
| AAGAAGCAAUAUUACGGCCG | -1.47 ± 0.12 | -0.0374 ± 0.15 |
| AAGAAGCAAUAUUACGUAAU | -1.89 ± 0.097 | -1.2 ± 0.12 |
| AAGAAGCAAUAUUACGUCUA | -0.234 ± 0.066 | -0.565 ± 0.098 |
| AAGAAGCAAUAUUACGUGAU | -1.96 ± 0.11 | -2.09 ± 0.11 |
| AAGAAGCAAUAUUACGUUCA | -0.746 ± 0.077 | 0.133 ± 0.099 |
| AAGAAGCAAUAUUACGUUUA | -1.62 ± 0.074 | -1.01 ± 0.077 |
| AAGCAGCAAUAUUACGAAAC | -3.7 ± 0.4 | -1.8 ± 0.38 |
| AAGCAGCAAUAUUACGACAC | -1.25 ± 0.058 | -0.831 ± 0.073 |
| AAGCAGCAAUAUUACGACUU | -0.223 ± 0.074 | -0.323 ± 0.086 |
| AAGCAGCAAUAUUACGAGGA | -2.82 ± 0.22 | -2.16 ± 0.18 |
| AAGCAGCAAUAUUACGCAAA | -1.82 ± 0.14 | -1.65 ± 0.13 |
| AAGCAGCAAUAUUACGCAAG | -2.43 ± 0.19 | -0.222 ± 0.098 |
| AAGCAGCAAUAUUACGCUGC | -3.47 ± 0.13 | -3.05 ± 0.18 |
| AAGCAGCAAUAUUACGCUUC | -2.97 ± 0.18 | -2.81 ± 0.26 |
| AAGCAGCAAUAUUACGGGAG | -3.74 ± 0.16 | -3.05 ± 0.23 |
| AAGCAGCAAUAUUACGGUCC | -1.17 ± 0.1 | -0.771 ± 0.17 |
| AAGCAGCAAUAUUACGGUGC | -3.29 ± 0.15 | -1.61 ± 0.14 |
| AAGCAGCAAUAUUACGGUUG | -3.08 ± 0.14 | -2.01 ± 0.15 |
| AAGCAGCAAUAUUACGUGCC | -1.23 ± 0.11 | -1.47 ± 0.12 |
| AAGCAGCAAUAUUACGUGGC | -4.15 ± 0.39 | -1.92 ± 0.2 |
| AAGGAGCAAUAUUACGACCA |  | -1.82 ± 0.31 |
| AAGGAGCAAUAUUACGACGU | -1.88 ± 0.13 | -0.122 ± 0.14 |
| AAGGAGCAAUAUUACGAUUC | -1.13 ± 0.19 | -1.78 ± 0.48 |

| Sequence | self-splicing fitness (ln) (30 °C) | self-splicing fitness (ln) (37 °C) |
| --- | --- | --- |
| AAGGAGCAAUAUUACGAUUG | -3.8 ± 0.32 | -0.948 ± 0.15 |
| AAGGAGCAAUAUUACGCCCU | -1.87 ± 0.35 | -1.91 ± 0.43 |
| AAGGAGCAAUAUUACGCGGA | -2.07 ± 0.13 | -2.71 ± 0.2 |
| AAGGAGCAAUAUUACGGAGA | -3.62 ± 0.31 | -2.35 ± 0.27 |
| AAGGAGCAAUAUUACGGCUG | -2.21 ± 0.23 | -1.37 ± 0.27 |
| AAGGAGCAAUAUUACGGGAU | -4.25 ± 0.29 | -3.56 ± 0.36 |
| AAGGAGCAAUAUUACGGUUU | -2.45 ± 0.12 | -1.07 ± 0.11 |
| AAGGAGCAAUAUUACGUAUG | -3.31 ± 0.34 | -3.58 ± 0.33 |
| AAGGAGCAAUAUUACGUCAA | -1.97 ± 0.22 | -2.96 ± 0.4 |
| AAGGAGCAAUAUUACGUCUC | -2.84 ± 0.48 |  |
| AAGGAGCAAUAUUACGUGAU | -2.78 ± 0.18 | -2.45 ± 0.3 |
| AAGGAGCAAUAUUACGUGUG | -3.39 ± 0.17 | -0.957 ± 0.15 |
| AAGGAGCAAUAUUACGUUCA | -1.44 ± 0.077 | -0.0364 ± 0.088 |
| AAGGAGCAAUAUUACGUUUG | -3.57 ± 0.42 | -2.82 ± 0.23 |
| AAGUAGCAAUAUUACGAAUG | -3.14 ± 0.24 | -1.72 ± 0.14 |
| AAGUAGCAAUAUUACGACUG | 0.323 ± 0.082 | -0.593 ± 0.11 |
| AAGUAGCAAUAUUACGAGCU | -0.679 ± 0.057 | -0.289 ± 0.087 |
| AAGUAGCAAUAUUACGAUAU | -1.21 ± 0.066 | -0.506 ± 0.084 |
| AAGUAGCAAUAUUACGCAUG | -2.05 ± 0.069 | -0.492 ± 0.074 |
| AAGUAGCAAUAUUACGCCUU | -1.39 ± 0.12 | -1.01 ± 0.19 |
| AAGUAGCAAUAUUACGCGGG | -2.89 ± 0.19 | -2.84 ± 0.2 |
| AAGUAGCAAUAUUACGCUAA | -1.81 ± 0.14 | -0.343 ± 0.15 |
| AAGUAGCAAUAUUACGCUCG | -0.592 ± 0.13 | -0.234 ± 0.17 |
| AAGUAGCAAUAUUACGCUUU | -3.18 ± 0.24 | -3.19 ± 0.47 |
| AAGUAGCAAUAUUACGGACG | -2.73 ± 0.18 | -1.74 ± 0.2 |
| AAGUAGCAAUAUUACGGAGG | -3.89 ± 0.33 | -2.5 ± 0.33 |

| Sequence | self-splicing fitness (ln) (30 °C) | self-splicing fitness (ln) (37 °C) |
| --- | --- | --- |
| AAGUAGCAAUAUUACGGCAG | -2.54 ± 0.18 | -1.77 ± 0.18 |
| AAGUAGCAAUAUUACGGCUG | -0.444 ± 0.083 | -0.731 ± 0.13 |
| AAGUAGCAAUAUUACGGCUU | -1.4 ± 0.12 | -0.634 ± 0.14 |
| AAGUAGCAAUAUUACGGUGG | -3.62 ± 0.22 | -2.85 ± 0.26 |
| AAGUAGCAAUAUUACGGUUC | -2.75 ± 0.19 | -2.08 ± 0.23 |
| AAGUAGCAAUAUUACGUCCA | -0.464 ± 0.18 | -0.521 ± 0.17 |
| AAGUAGCAAUAUUACGUCGC | -2.54 ± 0.25 | -1.8 ± 0.23 |
| AAGUAGCAAUAUUACGUGUA | -1.98 ± 0.13 | -1.41 ± 0.14 |
| AAGUAGCAAUAUUACGUGUU | -2.27 ± 0.093 | -1.2 ± 0.095 |
| AAGUAGCAAUAUUACGUUUA | -1.63 ± 0.13 | -0.835 ± 0.11 |
| AAUAAGCAAUAUUACGAAAA | -2.98 ± 0.28 | -1.76 ± 0.2 |
| AAUAAGCAAUAUUACGAAAU | -2.34 ± 0.14 | -1.4 ± 0.15 |
| AAUAAGCAAUAUUACGAAUU | -1.93 ± 0.1 | -1.58 ± 0.12 |
| AAUAAGCAAUAUUACGACAG | -1.64 ± 0.13 | -0.432 ± 0.14 |
| AAUAAGCAAUAUUACGACCC | -0.924 ± 0.12 | 0.479 ± 0.17 |
| AAUAAGCAAUAUUACGACUC | 0.0667 ± 0.14 | 0.341 ± 0.2 |
| AAUAAGCAAUAUUACGAGAU | -3.82 ± 0.2 | -2.24 ± 0.21 |
| AAUAAGCAAUAUUACGCACU | 0.285 ± 0.075 | -0.118 ± 0.082 |
| AAUAAGCAAUAUUACGCCGG | -1.87 ± 0.13 | -1.07 ± 0.18 |
| AAUAAGCAAUAUUACGCGCA | -0.438 ± 0.081 | -0.0417 ± 0.11 |
| AAUAAGCAAUAUUACGCGGC | -2.74 ± 0.24 | -2.03 ± 0.33 |
| AAUAAGCAAUAUUACGCUUC | -3.51 ± 0.23 | -2.59 ± 0.23 |
| AAUAAGCAAUAUUACGGCCC | -0.731 ± 0.17 | 0.533 ± 0.27 |
| AAUAAGCAAUAUUACGGCGU | 0.428 ± 0.082 | 0.242 ± 0.1 |

— the supplement of paper PMC7877785
